Measurements from patent US20140004136A1 (CENTRE NATIONAL DE LA RECHERCHE SCIENTIFIQUE, published 2014).

What was measured:
[1] = target: T1, murine major histocompatibility complex class II molecule I-A^k (murine, UniProt P01910 24-218; P06343 28-224, limits assumed); assay: competition with reference peptides on transfected fibroblasts, IL-2 secretion of T hybridoma E7E9
T1 construct: whole, on cells;extracellular; Expressed on transfected fibroblasts

[2] = target: T2, murine major histocompatibility complex class II molecule I-E^d (murine, UniProt P01904 26-216; P01915 32-225, limits assumed); assay: competition with reference peptides on transfected fibroblasts, IL-2 secretion of T hybridoma 26.1
T2 construct: whole, on cells;extracellular; Expressed on transfected fibroblasts
T2 sequence (MHC II alpha, looked up): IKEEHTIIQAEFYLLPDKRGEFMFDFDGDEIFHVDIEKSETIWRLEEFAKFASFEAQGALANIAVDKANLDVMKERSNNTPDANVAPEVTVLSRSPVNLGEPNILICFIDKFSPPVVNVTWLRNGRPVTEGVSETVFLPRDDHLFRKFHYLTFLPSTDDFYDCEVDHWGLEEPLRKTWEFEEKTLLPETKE
T2 sequence (MHC II beta, looked up): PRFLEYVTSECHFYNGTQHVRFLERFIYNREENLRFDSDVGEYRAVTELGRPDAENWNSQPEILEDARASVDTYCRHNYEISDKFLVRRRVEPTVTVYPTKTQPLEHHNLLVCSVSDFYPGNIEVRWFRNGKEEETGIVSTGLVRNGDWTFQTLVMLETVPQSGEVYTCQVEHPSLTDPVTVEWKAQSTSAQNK

[3] = target: T3, murine major histocompatibility complex class II molecule I-A^d (murine, UniProt P04228 24-218; P01921 28-226, limits assumed); assay: competition with reference peptides on transfected fibroblasts, IL-2 secretion of T hybridoma 26.2
T3 construct: whole, on cells;extracellular; Expressed on transfected fibroblasts
T3 sequence (MHC II alpha, looked up): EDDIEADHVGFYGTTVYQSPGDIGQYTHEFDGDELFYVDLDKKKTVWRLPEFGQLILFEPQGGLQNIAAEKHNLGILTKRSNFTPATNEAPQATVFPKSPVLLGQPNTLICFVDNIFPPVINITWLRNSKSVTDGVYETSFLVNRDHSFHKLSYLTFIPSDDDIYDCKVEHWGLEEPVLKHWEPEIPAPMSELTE
T3 sequence (MHC II beta, looked up): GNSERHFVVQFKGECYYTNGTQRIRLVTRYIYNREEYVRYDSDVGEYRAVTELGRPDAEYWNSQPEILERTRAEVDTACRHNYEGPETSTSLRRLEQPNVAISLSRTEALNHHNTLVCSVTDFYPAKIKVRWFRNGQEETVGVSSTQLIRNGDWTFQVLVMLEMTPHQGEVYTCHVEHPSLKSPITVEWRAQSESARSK

Measured: binding result

B1: 131-151 peptide of the U1-70K protein (RIHMVYSKRSGKPRGYAFIEY) (peptide)
peptide: RIHMVYSKRSGKPRGYAFIEY
notes: Synthetic peptide; also called parent peptide; non-phosphorylated peptide
binds: all assays above
